The record followed here is article PMC5919683, “Transcription factor HAT1 is a substrate of SnRK2.3 kinase and negatively regulates ABA synthesis and signaling in Arabidopsis responding to drought” (PLoS Genetics, 2018).

The target in data set [1] is T1, MBP-HAT1 (Arabidopsis thaliana (Col-0), UniProt P46600 1-282).
T1 sequence: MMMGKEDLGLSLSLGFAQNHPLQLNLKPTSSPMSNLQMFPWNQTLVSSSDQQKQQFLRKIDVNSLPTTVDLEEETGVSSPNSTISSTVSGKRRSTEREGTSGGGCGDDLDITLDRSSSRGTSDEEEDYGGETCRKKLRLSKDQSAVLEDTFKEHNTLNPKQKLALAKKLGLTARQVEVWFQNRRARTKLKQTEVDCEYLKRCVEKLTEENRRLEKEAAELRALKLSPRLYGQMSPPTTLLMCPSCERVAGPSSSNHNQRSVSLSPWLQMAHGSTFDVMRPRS
Put plainly: EMSA; EMSA: 25 mM HEPES-KOH pH 8.0, 50 mM KCl, 1 mM DTT, 10% glycerol, 20 uL, ~1 ng probe, 30 min on ice; 5% native PAGE, 1x TGE pH 8.7. The note with it: protein: recombinant; tags: MBP (pETMALc-H); chain copies: 2.

Data set [2] deals with T2, GST-SnRK2.6 (Arabidopsis thaliana, UniProt Q940H6 1-362).
T2 construct: SnRK2.6 of Arabidopsis; coding region inserted into pGEX-6P-1; also called GST-SnRK2s; source: recombinant (pGEX-6P-1 vector); purification told only for GST-SnRK2.3
T2 sequence (looked up): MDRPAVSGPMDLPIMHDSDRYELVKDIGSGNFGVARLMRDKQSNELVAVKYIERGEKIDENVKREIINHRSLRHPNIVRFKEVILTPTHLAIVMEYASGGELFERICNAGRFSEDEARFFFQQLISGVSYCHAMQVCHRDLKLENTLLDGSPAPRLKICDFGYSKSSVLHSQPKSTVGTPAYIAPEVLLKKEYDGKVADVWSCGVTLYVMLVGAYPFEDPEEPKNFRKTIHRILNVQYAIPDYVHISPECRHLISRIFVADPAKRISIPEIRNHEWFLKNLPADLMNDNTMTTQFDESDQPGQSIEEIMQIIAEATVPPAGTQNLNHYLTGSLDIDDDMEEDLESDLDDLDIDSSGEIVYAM
Put plainly: pull-down; GST pull-down: GST or GST-SnRK2s as bait, MBP-tagged HAT1 or its domains detected by western blotting with anti-MBP antibody. The following applies: both partners purified. Background: In western blotting, separated proteins are transferred to a membrane and probed.

The target in data set [3] is T3, GST-SnRK2.3 (Arabidopsis thaliana, UniProt Q39193 1-361).
T3 construct: SnRK2.3 of Arabidopsis; coding region inserted into pGEX-6P-1; also called GST-SnRK2s; SnRK2.3 fused with GST; source: recombinant (pGEX-6P-1 vector), purified with glutathione beads (Sigma)
T3 sequence (looked up): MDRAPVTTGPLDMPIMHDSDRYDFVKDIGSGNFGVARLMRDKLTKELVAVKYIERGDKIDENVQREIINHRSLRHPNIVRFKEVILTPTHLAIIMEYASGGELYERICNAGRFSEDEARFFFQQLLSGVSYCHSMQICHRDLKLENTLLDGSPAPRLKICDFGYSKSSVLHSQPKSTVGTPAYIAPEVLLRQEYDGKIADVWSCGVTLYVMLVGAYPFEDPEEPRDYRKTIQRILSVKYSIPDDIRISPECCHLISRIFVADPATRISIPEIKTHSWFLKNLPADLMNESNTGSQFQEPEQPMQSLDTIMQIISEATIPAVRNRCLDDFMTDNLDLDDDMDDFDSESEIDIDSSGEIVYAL
The data set is described as above. The note with it: both partners purified.

The target of data set [4] is T4, GST-SnRK2.2 (Arabidopsis thaliana, UniProt Q39192 1-362).
T4 construct: SnRK2.2 of Arabidopsis; coding region inserted into pGEX-6P-1; also called GST-SnRK2s; source: recombinant (pGEX-6P-1 vector); purification told only for GST-SnRK2.3
T4 sequence (looked up): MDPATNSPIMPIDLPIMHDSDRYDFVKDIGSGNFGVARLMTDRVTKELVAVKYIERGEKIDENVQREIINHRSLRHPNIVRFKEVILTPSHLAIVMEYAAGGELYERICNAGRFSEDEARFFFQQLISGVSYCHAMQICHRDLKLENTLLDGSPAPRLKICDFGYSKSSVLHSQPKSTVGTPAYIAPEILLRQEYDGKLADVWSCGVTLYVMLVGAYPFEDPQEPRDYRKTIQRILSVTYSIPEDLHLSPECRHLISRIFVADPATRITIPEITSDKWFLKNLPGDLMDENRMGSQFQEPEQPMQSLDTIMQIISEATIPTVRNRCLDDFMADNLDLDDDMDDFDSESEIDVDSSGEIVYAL
Described as above. The following applies: both partners purified.

B1: NCED3 N1 mutant probe (dsDNA)
DNA 1: AAACATTCGCTGGTCGTTGTTACTCTATTCTTCTAAA
DNA 2: TTTAGAAGAATAGAGTAACAACGACCAGCGAATGTTT
Regarding B1, the binding result in data set [1] is listed as “no binding”.

B2: NCED3 N1 WT probe (dsDNA)
DNA 1: AAAAATTCCAATTATTGTGTTACTCTATTCTTCTAAA
DNA 2: TTTAGAAGAATAGAGTAACACAATAATTGGAATTTTT
As for B2, the binding result in data set [1] is “binds”.

B3: MBP-HAT1 (natural protein, Arabidopsis thaliana, UniProt P46600 1-282, looked up)
chain: MMMGKEDLGLSLSLGFAQNHPLQLNLKPTSSPMSNLQMFPWNQTLVSSSDQQKQQFLRKIDVNSLPTTVDLEEETGVSSPNSTISSTVSGKRRSTEREGTSGGGCGDDLDITLDRSSSRGTSDEEEDYGGETCRKKLRLSKDQSAVLEDTFKEHNTLNPKQKLALAKKLGLTARQVEVWFQNRRARTKLKQTEVDCEYLKRCVEKLTEENRRLEKEAAELRALKLSPRLYGQMSPPTTLLMCPSCERVAGPSSSNHNQRSVSLSPWLQMAHGSTFDVMRPRS
notes: HAT1 of Arabidopsis thaliana; the HAT1 coding region amplified from Col-0 cDNA; The methods of the EMSA speak of recombinant proteins purified from E. coli; also called MBP-tagged HAT1; MBP-fusion HAT1 protein; source: recombinant (pETMALc-H vector), purified with amylose resin (NEB)
For B3, the binding result in data set [2], in data set [3] and in data set [4] was “binds” throughout.

B4: ABA3 A1 mutant probe (dsDNA)
DNA 1: ATATTTAATTGCTGGTCGTTGGTTTAAACAAAATT
DNA 2: AATTTTGTTTAAACCAACGACCAGCAATTAAATAT
In the case of B4, the binding result in data set [1] is listed as “no binding”.

B5: ABA3 A1 WT probe (dsDNA)
DNA 1: ATATTTAATTTAATAATTATTGGTTTAAACAAAATT
DNA 2: AATTTTGTTTAAACCAATAATTATTAAATTAAATAT
With B5, the binding result in data set [1] was “binds”.
